Laboratory results: patent US11472840B2, “Acetylcholine receptor-binding peptide” (AMICOGEN, INC., priority 2017, dated 2022)

How the values were obtained:
[1] = target: acetylcholine receptor (Homo sapiens, UniProt P02708); test: Surface plasmon resonance (SPR) affinity measurement on a biosensor chip (Biacore 3000); conditions: running buffer 20 mM Tris pH 7.4, peptide 0.1 to 0.5 μM, higher binding than Synake (FIG. 10)
Protocol: A surface plasmon resonance (SPR) experiment was progressed using a biosensor chip to check affinity values for acetylcholine receptors of S6_1 (SEQ ID NO: 23, WTWKGKGTLNR), i.e., discovered peptides and Synake, i.e., a positive control group (Biacore 3000, Biacore AB, Uppsala, Sweden). […] A binding ability comparing experiment was carried out under observation conditions of a running buffer of 20 mM Tris (pH 7.4), a speed of 30 ? /min, a concentration of 10 to 50 μM (Synake), and a concentration of 0.1 to 10 μM (peptides S6_1). Respective results of the binding ability comparing experiment are shown in FIG. 7 (Synake) and FIG. 8 (peptides S6_1).
A surface plasmon resonance (SPR) experiment was progressed using a biosensor chip to check affinity values for acetylcholine receptors of optimized S6_1_C9 peptides (SEQ ID NO: 28, WKGKGTLNR) prepared in Example 6 (Biacore 3000, Biacore AB, Uppsala, Sweden).
An experiment of measuring affinity values of the peptides was carried out under observation conditions of a running buffer of 20 mM Tris (pH 7.4), a speed of 30 ? /min, and a concentration of 0.1 to 0.5 μM (peptides S6_1_C9).

[2] = target: acetylcholine receptor (AchR) alpha 1; test: SPR (Biacore 3000), AchR coupled to chip, peptide 0.1 to 0.5 uM; reference Synake
Sequence of acetylcholine receptor (AchR) alpha 1 (P02708 whole entry): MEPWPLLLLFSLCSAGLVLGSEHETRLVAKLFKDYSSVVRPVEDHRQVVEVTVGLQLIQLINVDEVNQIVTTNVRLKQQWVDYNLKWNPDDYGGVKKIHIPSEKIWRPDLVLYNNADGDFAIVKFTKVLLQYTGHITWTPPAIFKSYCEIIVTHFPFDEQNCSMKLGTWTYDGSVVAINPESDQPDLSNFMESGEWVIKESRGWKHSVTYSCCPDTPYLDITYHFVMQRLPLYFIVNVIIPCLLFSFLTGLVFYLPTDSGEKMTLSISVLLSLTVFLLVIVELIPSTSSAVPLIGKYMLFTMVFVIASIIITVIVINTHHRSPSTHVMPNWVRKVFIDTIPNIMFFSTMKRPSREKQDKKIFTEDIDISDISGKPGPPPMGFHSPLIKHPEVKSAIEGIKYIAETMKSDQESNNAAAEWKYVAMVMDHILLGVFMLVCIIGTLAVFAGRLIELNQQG

Sequence of acetylcholine receptor (P02708 21-457): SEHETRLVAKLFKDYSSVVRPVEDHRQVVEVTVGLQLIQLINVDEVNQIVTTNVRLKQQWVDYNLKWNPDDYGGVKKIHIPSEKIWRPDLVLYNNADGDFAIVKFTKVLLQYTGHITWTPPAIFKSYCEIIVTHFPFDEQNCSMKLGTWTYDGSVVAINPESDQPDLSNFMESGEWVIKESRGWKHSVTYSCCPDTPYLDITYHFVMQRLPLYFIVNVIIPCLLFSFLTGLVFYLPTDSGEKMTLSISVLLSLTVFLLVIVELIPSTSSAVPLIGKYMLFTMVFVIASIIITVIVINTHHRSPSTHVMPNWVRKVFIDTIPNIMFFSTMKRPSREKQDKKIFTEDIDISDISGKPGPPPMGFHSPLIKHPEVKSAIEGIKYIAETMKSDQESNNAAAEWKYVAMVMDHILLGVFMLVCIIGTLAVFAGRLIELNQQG

Row | Molecule | binding ability for acetylcholine receptor relative to Synake [1] | binding abilities, fold higher than Synake [2]
1 | WKGKGTLNR (Ach-R) [S6_1_C9] | about 100 times | 
2 | WKGKGTLNR [S6_1_C9] |  | 100 times
